# Substitutions are numbered along the chain they refer to.
# T1: human IL-11 (AAH12506.1, Pro22-Leu199) (human, UniProt P20809 22-199)
# T1 construct: The range Pro22-Leu199 counts on AAH12506.1; The Octet runs say only 'human IL-11'; also called hIL-11
# T1 chain: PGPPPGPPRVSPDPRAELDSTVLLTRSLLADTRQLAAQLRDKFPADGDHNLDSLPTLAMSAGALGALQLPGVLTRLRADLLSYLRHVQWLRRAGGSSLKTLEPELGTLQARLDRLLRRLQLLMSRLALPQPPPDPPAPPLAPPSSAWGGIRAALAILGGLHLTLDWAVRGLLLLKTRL
# T2: IL-11 (Cat. 12225-HNCE, Sino Biological Inc.) (UniProt P20809 22-199, limits assumed)
# T2 sequence (looked up): T1 chain with L154H
# B1: hz18A10 (antibody, human IgG1, kappa, V domains shown)
# VH: EVQLVQSGAEVKKPGASVKVSCKASGYTFTTYNMDWVRQAPGQGLEWMGTIYPGNGDTSYNQKFKGRVTMTRDTSTSTVYMELSSLRSEDTAVYYCARGDLYALDYWGQGTLVTVSS
# VL: DIQMTQSPSSLSASVGDRVTITCKASQSVSNDVAWYQQKPGKAPKLLIYSASNRYTGVPSRFSGSGSGTDFTFTISSLQPEDIATYYCQHDYSSPYTFGQGTKLEIKR
# notes: humanized, human constant regions; also called hz18A10-VH + hz18A10-VL; parent antibody hz18A10
# B2: hz8C8 (antibody, human IgG1, kappa, V domains shown)
# VH: EVQLVESGGGLVQPGGSLRLSCAASGFTFSSFGMHWVRQAPGKGLEWVAYITSGSNTIYYADTVKGRFTISRDNAKNSLYLQMNSLRAEDTAVYYCAREYYSYDEGFAYWGQGTLVTVSS
# VL: EIVLTQSPATLSLSPGERATLSCSVSSSISSNYLHWYQQKPGQAPRLLIYRTSNLASGIPARFSGSGSGTDFTLTISSLEPEDFAVYYCQQGVDVPFTFGQGTKLEIKR
# notes: humanized, human constant regions; also called hz8C8-VH + hz8C8-VL; parent antibody hz8C8
# B3: hz8C8-VHm1-m5 + hz8C8-VLm7-m2 (antibody, human IgG1, kappa, V domains shown)
# VH: B2 VH with W47Y, S53P
# VL: B2 VL with S27D, S28L, S30P, N32Q, R51D, T52A
# notes: human IgG1 constant regions
# B4: hz8C8-VHm4 + hz8C8-VL (antibody, human IgG1, kappa, V domains shown)
# VH: B2 VH with S55A
# VL: B2 VL
# notes: human IgG1 constant regions
# B5: hz8C8-VHm1-m8 + hz8C8-VLm7-m2 (antibody, human IgG1, kappa, V domains shown)
# VH: B2 VH with V48I, A49G, S53P
# VL: B2 VL with S27D, S28L, S30P, N32Q, R51D, T52A
# notes: human IgG1 constant regions
# B6: hz8C8-VHm1-m12 + hz8C8-VLm7-m2 (antibody, human IgG1, kappa, V domains shown)
# VH: B2 VH with S53P, F107G
# VL: B2 VL with S27D, S28L, S30P, N32Q, R51D, T52A
# notes: human IgG1 constant regions
# B7: hz8C8-VHm3 + hz8C8-VL (antibody, human IgG1, kappa, V domains shown)
# VH: B2 VH with S53P, I58T
# VL: B2 VL
# notes: human IgG1 constant regions
# B8: hz8C8-VHm1-m6 + hz8C8-VLm7-m2 (antibody, human IgG1, kappa, V domains shown)
# VH: B2 VH with Y50V, S53P
# VL: B2 VL with S27D, S28L, S30P, N32Q, R51D, T52A
# notes: human IgG1 constant regions
# B9: hz8C8-VHm1-m10 + hz8C8-VLm7-m2 (antibody, human IgG1, kappa, V domains shown)
# VH: B2 VH with S53P, Y103S
# VL: B2 VL with S27D, S28L, S30P, N32Q, R51D, T52A
# notes: human IgG1 constant regions
# B10: hz8C8-VHm6 + hz8C8-VLm7 (antibody, human IgG1, kappa, V domains shown)
# VH: B2 VH with S53P, N56S
# VL: B2 VL with S27D, S28L, S30P, N32Q
# notes: human IgG1 constant regions
# B11: hz8C8-VHm5 + hz8C8-VLm7 (antibody, human IgG1, kappa, V domains shown)
# VH: B2 VH with H35S, S53P
# VL: B2 VL with S27D, S28L, S30P, N32Q
# notes: human IgG1 constant regions
# B12: hz8C8-VHm1-m9 + hz8C8-VLm7-m2 (antibody, human IgG1, kappa, V domains shown)
# VH: B2 VH with V48M, A49G, S53P
# VL: B2 VL with S27D, S28L, S30P, N32Q, R51D, T52A
# notes: human IgG1 constant regions
# B13: hz8C8-VHm1-m13 + hz8C8-VLm7-m2 (antibody, human IgG1, kappa, V domains shown)
# VH: B2 VH with S53P, Y109S
# VL: B2 VL with S27D, S28L, S30P, N32Q, R51D, T52A
# notes: human IgG1 constant regions
# B14: hz8C8-VHm1-m7 + hz8C8-VLm7-m2 (antibody, human IgG1, kappa, V domains shown)
# VH: B2 VH with A49S, Y50V, S53P
# VL: B2 VL with S27D, S28L, S30P, N32Q, R51D, T52A
# notes: human IgG1 constant regions
# B15: hz8C8-VHm1-m4 + hz8C8-VLm7-m2 (antibody, human IgG1, kappa, V domains shown)
# VH: B2 VH with A49S, S53P
# VL: B2 VL with S27D, S28L, S30P, N32Q, R51D, T52A
# notes: human IgG1 constant regions
# B16: hz8C8-VHm2 + hz8C8-VL (antibody, human IgG1, kappa, V domains shown)
# VH: B2 VH with S53A
# VL: B2 VL
# notes: human IgG1 constant regions
# B17: hz8C8-VHm1-m11 + hz8C8-VLm7-m2 (antibody, human IgG1, kappa, V domains shown)
# VH: B2 VH with S53P, F107P
# VL: B2 VL with S27D, S28L, S30P, N32Q, R51D, T52A
# notes: human IgG1 constant regions
# Target: T1, human IL-11 (AAH12506.1, Pro22-Leu199)
# Experiment: BLI (Octet), antibody on AHC probe, human IL-11 in solution
# Protocol: (§1) When the hybridoma cells were cultured to a certain number, culture supernatants were collected and purified using Protein G affinity chromatography to obtain murine hybridoma antibodies (Hy5C2, Hy8C8, Hy16B5, Hy18A10, Hy18H10, Hy23G6 and Hy29C11). The affinity of the murine antibodies purified from the hybridoma supernatants was determined using an Octet QKe System instrument from Fortebio Inc. with an anti-mouse IgG Fc Capture biosensor to capture the Fc fragments of the antibodies, for which an anti-IL-11 antibody named “3C6-mFc” recombinantly expressed was used at the same concentration as a positive control. Specifically, a hybridoma supernatant was diluted with HBS-EP+ buffer (GE), and was allowed to pass through the surface of AMC probes (Cat: 18-5088, PALL), and so the antibody in the hybridoma supernatant was captured on the surface of the probes; then, human IL-11 diluted in the HBS-EP+ buffer (300 nM) was used as a mobile phase to react with the antibody captured on the surface of the probes. Both the binding and the dissociating were conducted for 300 seconds. When the experiment was finished, data from which response values of blank controls had been deducted was fitted using a 1:1 Langmuir binding model by software, and then kinetic constants for antigen-antibody binding were calculated. Binding signals were detected on the Octet QKe System instrument with Hy5C2, Hy8C8, Hy16B5, Hy18A10, and Hy18H10.
# (§2) The affinity of hz18A10 and hz8C8 was determined according to the method provided in Example 1 using AHC bioprobes for capturing human Fc fragment instead, with other conditions unchanged. A recombinantly expressed anti-IL-11 antibody 3C6-hFc was used at the same concentration as a positive control.
Kd [nM],koff [s⁻¹],kon [M⁻¹ s⁻¹],Binder
3.21,0.00249,773000,B1

# Target: T2, IL-11 (Cat. 12225-HNCE, Sino Biological …)
# Experiment: cell-based or functional assay
row,"Blocking activity (IC50), STAT3-luc reporter [µg/mL]",Binder
1,18.5,B1
2,2.04,B2
3,0.194,B3
4,1.54,B4
5,0.003,B5
6,0.012,B6
7,0.946,B7
8,0.034,B8
9,0.008,B9
10,0.066,B10
11,0.01,B11
12,0.002,B12
13,0.008,B13
14,0.027,B14
15,0.004,B15
16,0.51,B16
17,0.01,B17

# Target: T2, IL-11 (Cat. 12225-HNCE, Sino Biological …)
# Experiment: competition ELISA, IL-11/IL-11Rα/GP130 complex
# Protocol: The activity of the recombinant murine anti-IL-11 antibodies for blocking the formation of IL-11/IL-11Rα/GP130 complex was analyzed via competition ELISA. IL-11Rα-His (NP_004503.1, Met1-Val363, C-terminus-6-His Tag) was firstly added into ELISA plates to be coated overnight. Next day, samples were prepared as follows. […] After co-incubating and washing, an HRP conjugated anti-human Fc secondary antibody was added to develop the color which was then detected.
# (§3) Then, light and heavy chain expression vectors for preparing mutant antibodies were constructed according to the method for preparing the recombinant antibodies provided in Example 4, using the mutant sequences shown in Table 3 which accordingly were linked with human IgG1 constant regions (SEQ ID NO. 13, and SEQ ID NO.14). Subsequently, the light chain and the heavy chain were reasonably matched and co-transfected into eukaryotic cells for transient expression, and then recombination protein samples of the mutant antibodies were obtained through affinity purification. The samples obtained were tested for affinity on Fortebio Octet, according to the method for measuring affinity provided in Example 1. Further, using the protocol provided in Example 3, hz8C8 and its affinity matured mutants were analyzed for their activity for blocking the formation of IL-11/IL-11Rα/GP130 complex.
row,IC50 [µg/mL],Binder
1,2.56,B2
2,0.52,B3
3,1.01,B4
4,0.57,B5
5,1.54,B6
6,0.828,B7
7,1.71,B8
8,1.57,B9
9,0.54,B10
10,0.65,B11
11,0.77,B12
12,0.54,B13
13,2.14,B14
14,0.79,B15
15,0.694,B16
16,1.7,B17

# Target: T1, human IL-11 (AAH12506.1, Pro22-Leu199)
# Experiment: BLI (Octet), antibody captured, human IL-11 in solution
# Protocol: The affinity of the murine antibodies purified from the hybridoma supernatants was determined using an Octet QKe System instrument from Fortebio Inc. with an anti-mouse IgG Fc Capture biosensor to capture the Fc fragments of the antibodies, for which an anti-IL-11 antibody named “3C6-mFc” recombinantly expressed was used at the same concentration as a positive control. Specifically, a hybridoma supernatant was diluted with HBS-EP+ buffer (GE), and was allowed to pass through the surface of AMC probes (Cat: 18-5088, PALL), and so the antibody in the hybridoma supernatant was captured on the surface of the probes; then, human IL-11 diluted in the HBS-EP+ buffer (300 nM) was used as a mobile phase to react with the antibody captured on the surface of the probes. Both the binding and the dissociating were conducted for 300 seconds. When the experiment was finished, data from which response values of blank controls had been deducted was fitted using a 1:1 Langmuir binding model by software, and then kinetic constants for antigen-antibody binding were calculated. Binding signals were detected on the Octet QKe System instrument with Hy5C2, Hy8C8, Hy16B5, Hy18A10, and Hy18H10.
# as §2
# as §3, with “1.” for “1. Further, using the protocol provided in Example 3, hz8C8 and its affinity matured mutants were analyzed for their activity for blocking the formation of IL-11/IL-11Rα/GP130 complex.”
Kd [nM],koff [s⁻¹],kon [M⁻¹ s⁻¹],Binder
0.0594,4.05e-05,683000,B3
1.37,0.0012,878000,B4
< 0.001,< 1e-07,847000,B5
7.95,0.00139,175000,B6
4.77,0.00216,453000,B7
2.07,0.00135,653000,B8
1.39,0.000305,219000,B9
0.156,0.000127,812000,B10
0.19,0.000175,920000,B11
0.0239,2.14e-05,897000,B12
0.0573,4.32e-05,753000,B13
1.87,0.00111,595000,B14
< 0.001,< 1e-07,879000,B15
0.727,0.000586,806000,B16
1.3,0.001,771000,B17

# Target: T1, human IL-11 (AAH12506.1, Pro22-Leu199)
# Experiment: BLI (Octet), antibody on AHC probe, human IL-11 in solution
# Remark: another data set of the same source
# Protocol: as §1, §2
Kd [nM],koff [s⁻¹],kon [M⁻¹ s⁻¹],Binder
1.6,0.00134,836000,B2
